The text below walks through data of patent US8916370B2, “Isoprene synthase variants for improved microbial production of isoprene” (Danisco US Inc., priority 2008, dated 2014).

Usually KM stands for the substrate concentration at which the rate is half of its maximum. By Km is commonly meant the substrate concentration at which the rate is half of its maximum. As usually defined, the kcat is the maximal rate divided by the concentration of active sites.

Series [1] addresses P. alba isoprene synthase (IspS), full length, C-terminally TEV and His-tagged (MD09-165), FL(+)TEV, SEQ ID NO:134 (Populus alba, UniProt Q50L36). Particulars: DMAPP 0.625 to 40 mM, 50 mM MgCl2, pH 8, 30° C., 15 min; ± S.D., triplicate. How it is done:
(§1) The relative specific activity was determined and the kinetics of “N-terminally truncated” P. alba isoprene synthases were examined compared to “Full length” P. alba isoprene synthases. Four strains expressing four different constructs were used in this analysis: BL21(λDE3) pLysS with P. alba pET24a; MD09-173; MD09-165; and MD09-167 (Strains described above in detail). These strains express “full length” P. alba IspS, “truncated” P. alba IspS (the MEA truncation), “full length” C-terminally TEV and His-tagged P. alba IspS, and “truncated” C-terminally TEV and His-tagged P. alba IspS, respectively. In the experiments described below, “truncated” refers specifically to the MEA variant of P. alba IspS.
(§2) All strains were inoculated into LB containing 30 mg/L chloramphenicol(Cm) and 50 mg/L kanamycin and grown overnight in 2 mL culture tubes at 37° C. The overnight cultures were diluted 1:100 in 25 mL of LB broth containing 30 mg/L chloramphenicol(Cm) and 50 mg/L kanamycin the following morning and grown at 37° C. until OD˜0.5. Each strain was grown in triplicate. The cultures were then induced with 400 uM IPTG and incubated at 30° C. for 4 hours.

Series [2] addresses P. alba isoprene synthase (IspS), truncated MEA variant, C-terminally TEV and His-tagged (MD09-167), MEA(+)TEV, SEQ ID NO:132 (Populus alba, UniProt Q50L36). Particulars: DMAPP 0.625 to 40 mM, 50 mM MgCl2, pH 8, 30° C., 15 min; ± S.D., triplicate (2.5 mM DMAPP in duplicate). How it is done: as §1, §2
For series [3], the system named is E. coli strain MCM531 (BL21 PL.2-mKKDyI). The experiment in a line: Growth inhibition of MCM531 by mevalonic acid. The series is classed as cell-based, Escherichia coli. As to conditions: TM3 medium with 1% glucose and yeast extract; 0, 1, 5, 10, 15 or 20 mM MVA; OD600, quadruplicate. How it is done: An overnight culture of MCM531 (see strain description) was back-diluted to an OD600 of 0.05 (this corresponds to an OD600 of approx 0.005 in a 96-well plate reader) (SpectraMax M2, Molecular Devices). The diluted culture was then aliquotted into separate wells in a 96-well deep-well plate into standard TM3 medium (13.6 g K2PO4, 13.6 g KH2PO4, 2.0 g MgSO4*7H2O) supplemented with 1% glucose and 0.8 g/L Biospringer yeast extract (1% Yeast extract final)) with 0, 1, 5, 10, 15 or 20 mM MVA added. […] Each MVA concentration was assayed in quadruplicate, error bars were negligible.

Substrate in series [4]: CC(C)=CCOP(=O)(O)OP(=O)(O)O
The experiment in a line: purified protein, by the assay type. As to conditions: other: DMAPP 0.625 to 40 mM, 50 mM MgCl2, pH 8, 30° C., 15 min, ± S.D., triplicate.

Sequence of P. alba isoprene synthase (IspS), truncated MEA variant, C-terminally TEV and His-tagged (MD09-167), MEA(+)TEV, SEQ ID NO:132 (Q50L36 with tags, fused parts or gaps): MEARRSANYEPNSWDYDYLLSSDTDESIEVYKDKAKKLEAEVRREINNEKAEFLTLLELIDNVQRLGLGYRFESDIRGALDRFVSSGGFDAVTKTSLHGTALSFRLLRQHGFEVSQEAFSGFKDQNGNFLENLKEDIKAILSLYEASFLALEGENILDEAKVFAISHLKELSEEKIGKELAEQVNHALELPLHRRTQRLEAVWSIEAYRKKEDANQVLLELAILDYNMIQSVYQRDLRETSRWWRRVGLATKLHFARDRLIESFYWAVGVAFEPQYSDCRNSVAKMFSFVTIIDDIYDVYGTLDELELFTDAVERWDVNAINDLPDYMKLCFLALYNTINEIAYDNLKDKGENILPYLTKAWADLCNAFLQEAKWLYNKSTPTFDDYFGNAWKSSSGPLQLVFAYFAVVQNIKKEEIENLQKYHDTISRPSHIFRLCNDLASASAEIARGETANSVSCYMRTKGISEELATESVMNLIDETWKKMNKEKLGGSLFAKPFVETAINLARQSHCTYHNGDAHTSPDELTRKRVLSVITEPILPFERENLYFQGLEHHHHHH
Sequence of P. alba isoprene synthase (IspS), full length, C-terminally TEV and His-tagged (MD09-165), FL(+)TEV, SEQ ID NO:134 (Q50L36 with tags, fused parts or gaps): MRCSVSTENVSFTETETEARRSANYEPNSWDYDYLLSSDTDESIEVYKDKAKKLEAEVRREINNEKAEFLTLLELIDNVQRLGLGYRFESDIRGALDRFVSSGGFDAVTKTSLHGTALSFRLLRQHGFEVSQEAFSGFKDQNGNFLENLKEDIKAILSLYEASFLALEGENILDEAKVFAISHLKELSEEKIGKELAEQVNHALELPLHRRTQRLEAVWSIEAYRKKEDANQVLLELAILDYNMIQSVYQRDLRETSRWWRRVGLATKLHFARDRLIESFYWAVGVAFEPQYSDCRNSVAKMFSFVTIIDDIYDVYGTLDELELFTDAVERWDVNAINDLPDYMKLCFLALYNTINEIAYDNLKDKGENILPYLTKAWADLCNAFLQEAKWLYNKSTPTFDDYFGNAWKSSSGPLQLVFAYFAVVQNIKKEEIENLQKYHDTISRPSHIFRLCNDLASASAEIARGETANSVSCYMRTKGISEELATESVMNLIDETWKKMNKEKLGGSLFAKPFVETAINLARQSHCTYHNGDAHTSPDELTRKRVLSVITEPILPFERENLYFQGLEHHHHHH

Regarding `CC(C)=CCOP(=O)(O)OP(=O)(O)O` [DMAPP, 3,3-dimethylallyl pyrophosphate], the KM was 2400 ± 500 µM in series [1] and 2000 ± 1000 µM in series [2].
As to `C[C@@](O)(CCO)CC(=O)O` [MVA, Mevalonic Acid], the “concentration at which growth was severely inhibited” value in series [3] is recorded as at least 5 mM.

B1: P. alba isoprene synthase (IspS), N-terminally truncated MEA variant, untagged (MD09-173, pDu39), SEQ ID NO:122 (Populus alba) (protein)
chain: MEARRSANYEPNSWDYDYLLSSDTDESIEVYKDKAKKLEAEVRREINNEKAEFLTLLELIDNVQRLGLGYRFESDIRGALDRFVSSGGFDAVTKTSLHGTALSFRLLRQHGFEVSQEAFSGFKDQNGNFLENLKEDIKAILSLYEASFLALEGENILDEAKVFAISHLKELSEEKIGKELAEQVNHALELPLHRRTQRLEAVWSIEAYRKKEDANQVLLELAILDYNMIQSVYQRDLRETSRWWRRVGLATKLHFARDRLIESFYWAVGVAFEPQYSDCRNSVAKMFSFVTIIDDIYDVYGTLDELELFTDAVERWDVNAINDLPDYMKLCFLALYNTINEIAYDNLKDKGENILPYLTKAWADLCNAFLQEAKWLYNKSTPTFDDYFGNAWKSSSGPLQLVFAYFAVVQNIKKEEIENLQKYHDTISRPSHIFRLCNDLASASAEIARGETANSVSCYMRTKGISEELATESVMNLIDETWKKMNKEKLGGSLFAKPFVETAINLARQSHCTYHNGDAHTSPDELTRKRVLSVITEPILPFER
As for B1, in series [4], the Km came to 1800 ± 200 µM and the kcat is 1.5 s⁻¹.

B2: P. alba isoprene synthase (IspS), full length, untagged, SEQ ID NO:120 (Populus alba) (protein)
chain: MRCSVSTENVSFTETETEARRSANYEPNSWDYDYLLSSDTDESIEVYKDKAKKLEAEVRREINNEKAEFLTLLELIDNVQRLGLGYRFESDIRGALDRFVSSGGFDAVTKTSLHGTALSFRLLRQHGFEVSQEAFSGFKDQNGNFLENLKEDIKAILSLYEASFLALEGENILDEAKVFAISHLKELSEEKIGKELAEQVNHALELPLHRRTQRLEAVWSIEAYRKKEDANQVLLELAILDYNMIQSVYQRDLRETSRWWRRVGLATKLHFARDRLIESFYWAVGVAFEPQYSDCRNSVAKMFSFVTIIDDIYDVYGTLDELELFTDAVERWDVNAINDLPDYMKLCFLALYNTINEIAYDNLKDKGENILPYLTKAWADLCNAFLQEAKWLYNKSTPTFDDYFGNAWKSSSGPLQLVFAYFAVVQNIKKEEIENLQKYHDTISRPSHIFRLCNDLASASAEIARGETANSVSCYMRTKGISEELATESVMNLIDETWKKMNKEKLGGSLFAKPFVETAINLARQSHCTYHNGDAHTSPDELTRKRVLSVITEPILPFER
For B2, in series [4], the Km was determined as 2400 ± 300 µM and the kcat was found to be 0.72 s⁻¹.
